target: human CD137 expressed on cells (Jurkat human CD137 NF-kB luciferase reporter cells; human CD8+ T cells) (human, UniProt Q07011 24-255); experiment: cell-based or functional assay

Row | Binder | Jurkat-CD137/CHO-PD-1 Reporter Assay EC50 [µM]
1 | TPP-975: CD137D-6GS-PDA2-6GS-HSA2-His (bispecific antibody) EVQLVESGGGVVQPGGSLRLSCAASGFTFSNYGMHWVRQAPGKGLEWVAVISNDGNTKTYADSVKGRFTISRDNSKNTLYLQMNSLRAEDTAVYYCAQDETTTVTASYYFDYWGQGTLVTVSSGGGGSGGGGSGGGGSGGGGSGGGGSGGGGSEVQLVESGGGVVRPGGSLRLSCAASGFTFDDYAMSWVRQAPGKGLEWVSGITWNAGSTGYADSVKGRFTISRDNAKNSLYLQMNSLRAEDTALYYCVRDKYSYAWSYDDFDIWGQGTMVTVSSGGGGSGGGGSGGGGSGGGGSGGGGSGGGGSEVQLVESGGGLVKPGGSLRLSCAASGFTFSNYNMNWVRQAPGKGLEWVSSISSAGTHIYYADSVKGRFTISRDNAKNSLYLQMNSLRAEDTAVYYCARDPHSTGWYKDFDYWGQGTLVTVSSAAAHHHHHH | 0.0115
2 | TPP-985: CD137D-6GS-HSA2-2-6GS-PDA2-His (bispecific antibody) EVQLVESGGGVVQPGGSLRLSCAASGFTFSNYGMHWVRQAPGKGLEWVAVISNDGNTKTYADSVKGRFTISRDNSKNTLYLQMNSLRAEDTAVYYCAQDETTTVTASYYFDYWGQGTLVTVSSGGGGSGGGGSGGGGSGGGGSGGGGSGGGGSEVQLVESGGGLVKPGGSLRLSCAASGFTFSNYNMNWVRQAPGKGLEWVSSISSAGTHIYYADSVKGRFTISRDNAKNSLYLQMNSLRAEDTAVYYCARDPHSTGWYKDFDYWGQGTLVTVSSGGGGSGGGGSGGGGSGGGGSGGGGSGGGGSEVQLVESGGGVVRPGGSLRLSCAASGFTFDDYAMSWVRQAPGKGLEWVSGITWNAGSTGYADSVKGRFTISRDNAKNSLYLQMNSLRAEDTALYYCVRDKYSYAWSYDDFDIWGQGTMVTVSSAAAHHHHHH | 0.0217
3 | TPP-1008: PDA-6GS-HSA3-6GS-CD137D-His (bispecific antibody) EVQLVESGGGLVQPGRSLRLSCAASGFTFDDYALHWVRQAPGKDLEWVSGISWNGGSYGYADSVKGRFTISRDNAKNSLYLQMNSLRAEDTALYYCVREKGPGLTGSTADYYGLDAWGQGTMVTVSSGGGGSGGGGSGGGGSGGGGSGGGGSGGGGSEVQLLESGGGLVKPGGSLRLSCAASGFTVSSYTMNWVRQAPGKGLEWVSSISSSGRYIYYADSVKGRFTISRDNAKNSLYLQMNSLRAEDTAVYYCARDPRMVGNPHEFDIWGQGTMVTVSSGGGGSGGGGSGGGGSGGGGSGGGGSGGGGSEVQLVESGGGVVQPGGSLRLSCAASGFTFSNYGMHWVRQAPGKGLEWVAVISNDGNTKTYADSVKGRFTISRDNSKNTLYLQMNSLRAEDTAVYYCAQDETTTVTASYYFDYWGQGTLVTVSSAAAHHHHHH | 0.00361
4 | TPP-957; PD138G7(G109D)-6GS-172E1-13-6GS-HSA2-His (bispecific antibody) EVQLVESGGGVVRPGGSLRLSCAASGFTFDDYAMSWVRQAPGKGLEWVSGITWNGGSTGYADSVKDRFTISRDNAKNSLYLQMNSLRAEDTALYYCVRDKYSYAWSYDDFDIWGQGTMVTVSSGGGGSGGGGSGGGGSGGGGSGGGGSGGGGSEVQLVESGGGVVQPGGSLRLSCAASGFTFSNYGMHWVRQAPGKGLEWVAVISNDGNTKTYADSVKGRFTISRDNSKNTLYLQMNSLRAEDTAVYYCAQDETTTVTASYYFDYWGQGTLVTVSSGGGGSGGGGSGGGGSGGGGSGGGGSGGGGSEVQLVESGGGLVKPGGSLRLSCAASGFTFSNYNMNWVRQAPGKGLEWVSSISSAGTHIYYADSVKGRFTISRDNAKNSLYLQMNSLRAEDTAVYYCARDPHSTGWYKDFDYWGQGTLVTVSSAAAHHHHHH | 0.011
5 | TPP-982: CD137A-6GS-HSA2-6GS-PDA-His (bispecific antibody) EVQLVESGGGLVQPGGSLRLSCAASGFTLSNYWMNWVRQAPGKGLEWVANINQDGSERYYVDSVKGRFTISRDNAKNSLYLQMNSLRAEDTAVYYCARGGEGYGVDHYGLDVSGQGTTVTVSSGGGGSGGGGSGGGGSGGGGSGGGGSGGGGSEVQLVESGGGLVKPGGSLRLSCAASGFTFSNYNMNWVRQAPGKGLEWVSSISSAGTHIYYADSVKGRFTISRDNAKNSLYLQMNSLRAEDTAVYYCARDPHSTGWYKDFDYWGQGTLVTVSSGGGGSGGGGSGGGGSGGGGSGGGGSGGGGSEVQLVESGGGLVQPGRSLRLSCAASGFTFDDYALHWVRQAPGKDLEWVSGISWNGGSYGYADSVKGRFTISRDNAKNSLYLQMNSLRAEDTALYYCVREKGPGLTGSTADYYGLDAWGQGTMVTVSSAAAHHHHHH | 0.00057
6 | TPP-983: CD137A-6GS-HSA2-6GS-PDA2-His (bispecific antibody) EVQLVESGGGLVQPGGSLRLSCAASGFTLSNYWMNWVRQAPGKGLEWVANINQDGSERYYVDSVKGRFTISRDNAKNSLYLQMNSLRAEDTAVYYCARGGEGYGVDHYGLDVSGQGTTVTVSSGGGGSGGGGSGGGGSGGGGSGGGGSGGGGSEVQLVESGGGLVKPGGSLRLSCAASGFTFSNYNMNWVRQAPGKGLEWVSSISSAGTHIYYADSVKGRFTISRDNAKNSLYLQMNSLRAEDTAVYYCARDPHSTGWYKDFDYWGQGTLVTVSSGGGGSGGGGSGGGGSGGGGSGGGGSGGGGSEVQLVESGGGVVRPGGSLRLSCAASGFTFDDYAMSWVRQAPGKGLEWVSGITWNAGSTGYADSVKGRFTISRDNAKNSLYLQMNSLRAEDTALYYCVRDKYSYAWSYDDFDIWGQGTMVTVSSAAAHHHHHH | 0.000556
7 | TPP-971: PDA2-6GS-HSA2-6GS-172E1-13-His (bispecific antibody) EVQLVESGGGVVRPGGSLRLSCAASGFTFDDYAMSWVRQAPGKGLEWVSGITWNAGSTGYADSVKGRFTISRDNAKNSLYLQMNSLRAEDTALYYCVRDKYSYAWSYDDFDIWGQGTMVTVSSGGGGSGGGGSGGGGSGGGGSGGGGSGGGGSEVQLVESGGGLVKPGGSLRLSCAASGFTFSNYNMNWVRQAPGKGLEWVSSISSAGTHIYYADSVKGRFTISRDNAKNSLYLQMNSLRAEDTAVYYCARDPHSTGWYKDFDYWGQGTLVTVSSGGGGSGGGGSGGGGSGGGGSGGGGSGGGGSEVQLVESGGGVVQPGGSLRLSCAASGFTFSNYGMHWVRQAPGKGLEWVAVISNDGNTKTYADSVKGRFTISRDNSKNTLYLQMNSLRAEDTAVYYCAQDETTTVTASYYFDYWGQGTLVTVSSAAAHHHHHH | 0.00718
8 | TPP-958: PD138G7(G109D)-6GS-172E1-13-6GS-HSA3-His (bispecific antibody) EVQLVESGGGVVRPGGSLRLSCAASGFTFDDYAMSWVRQAPGKGLEWVSGITWNGGSTGYADSVKDRFTISRDNAKNSLYLQMNSLRAEDTALYYCVRDKYSYAWSYDDFDIWGQGTMVTVSSGGGGSGGGGSGGGGSGGGGSGGGGSGGGGSEVQLVESGGGVVQPGGSLRLSCAASGFTFSNYGMHWVRQAPGKGLEWVAVISNDGNTKTYADSVKGRFTISRDNSKNTLYLQMNSLRAEDTAVYYCAQDETTTVTASYYFDYWGQGTLVTVSSGGGGSGGGGSGGGGSGGGGSGGGGSGGGGSEVQLLESGGGLVKPGGSLRLSCAASGFTVSSYTMNWVRQAPGKGLEWVSSISSSGRYIYYADSVKGRFTISRDNAKNSLYLQMNSLRAEDTAVYYCARDPRMVGNPHEFDIWGQGTMVTVSSAAAHHHHHH | 0.0109
9 | TPP-984: CD137D-6GS-HSA2-6GS-PDA-His (bispecific antibody) EVQLVESGGGVVQPGGSLRLSCAASGFTFSNYGMHWVRQAPGKGLEWVAVISNDGNTKTYADSVKGRFTISRDNSKNTLYLQMNSLRAEDTAVYYCAQDETTTVTASYYFDYWGQGTLVTVSSGGGGSGGGGSGGGGSGGGGSGGGGSGGGGSEVQLVESGGGLVKPGGSLRLSCAASGFTFSNYNMNWVRQAPGKGLEWVSSISSAGTHIYYADSVKGRFTISRDNAKNSLYLQMNSLRAEDTAVYYCARDPHSTGWYKDFDYWGQGTLVTVSSGGGGSGGGGSGGGGSGGGGSGGGGSGGGGSEVQLVESGGGLVQPGRSLRLSCAASGFTFDDYALHWVRQAPGKDLEWVSGISWNGGSYGYADSVKGRFTISRDNAKNSLYLQMNSLRAEDTALYYCVREKGPGLTGSTADYYGLDAWGQGTMVTVSSAAAHHHHHH | 0.0118
